The labels stand for the following.
B1: H1H27732P-N297Q (antibody, human IgG1, V domains shown)
VH: QLQLQESGPGLVKPSETLSLTCTVSGGSISSSTYYWGWIRQPPGKGLEWIGSFYYSGSTYYNPSLKSRVTISVGTSKNQFSLKLSSVTAADTAVYFCARGGLLGRPFVIWGQGTMVTVSS
VL: DIQMTQSPSSLSASVGDRVTITCRASQGIRNDLGWYQQKPGKAPKRLIYAASSLQSGVPSRFSGSGSGTEFTLTISSLQPEDFATYYCLQHNSYPLTFGGGTKVEIKR
notes: human IgG1 Fc with N297Q
B2: H1H27756P-N297Q (antibody, human IgG1, V domains shown)
VH: QVQLVESGGGVVQPGRSLRLSCAASGFTFSNYDMHWVRQAPGKGLEWMAVISYDGINKYYADSVKGRFTISRDNSKNTLYLQMNSLRAEDTAVYYCAKGTYSWYFDLWGRGTLVTVSS
VL: not shown
notes: human IgG1 Fc with N297Q
B3: H1H27760P2-N297Q (antibody, human IgG1, V domains shown)
VH: EVQLVESGGGLVQPGRSLRLSCAASGFTFDAYAMHWVRQAPGKGLEWVSGISWNSGSIGYADSVKGRFTISRDNAKNSLYLQMNSLREEDTALYYCAKDKILELYYYGMDVWGQGTTVTVSS
VL: not shown
notes: human IgG1 Fc with N297Q; also called H1H27760P-N297Q
B4: H1H27754P-N297Q (antibody, human IgG1, V domains shown)
VH: EVQLVESGGGLVQPGGSLRLSCAASGFTFRTYAMTWVRQAPGKGLDWVSAITGDGGNTYYADSVKGRFTISRDNSKNTLYLQMNSLRAEDTAIYYCAKDQRFSFALYYFDYWGQGTLVTVSS
VL: DIQMTQSPSSVSASVGDRVTITCRASQGISSWLAWYQQKPGNAPKLLIYAAFSLQSGVPSRFSGSGSGTDFTLTISSLQPEDFATYYCQQANNFPWTFGQGTKVEIKR
notes: human IgG1 Fc with N297Q
B5: H1H27749P-N297Q (antibody, human IgG1, V domains shown)
VH: QVQLQESGPGLVKPSETLSLTCTVSDGSISSYYWSWIRQPPGRGLEWIGFIYYSGSTSYNPSLKSRVTISVDTSMSQFSLKLRSVTAADTAVYYCARGSPFDYWGPGTLVTVSS
VL: EIVLTQSPGTLSLSPGERATLSCRASQSVSSSYLAWYQQRPGQAPSLLISGASRRATGIPDRFSGSGSGTDFTLTIRRLEPEDFAMYYCQQYGSSPPTFGGGTKVEIKR
notes: human IgG1 Fc with N297Q
B6: H1H27773P2-N297Q (antibody, human IgG1, V domains shown)
VH: EVQLVESGGGLVQPGGSLRLSCAASGFTFSSYAMNWVRQAPGKGLEWVSAISGSGDSTYYADSVKGRFTISRDNSRTTLSLQLNSLRAEDTAVYYCAKDRLLWFGELGSPFHYWGQGTLVTVSS
VL: not shown
notes: human IgG1 Fc with N297Q; also called H1H27773P-N297Q
B7: H1H27771P2-N297Q (antibody, human IgG1, V domains shown)
VH: EVQLVESGGGLVQPGGSLRLSCAASGFTFSSYGMNWVRQAPGKGLEWVSVISGSGGSTYYADSVKGRFTISRDNSKNTLYLQMNSLRAEDTAVYYCAKDRWTYYYDSSGSPFDYWGQGTLVTVSS
VL: not shown
notes: human IgG1 Fc with N297Q; also called H1H27771P-N297Q
B8: H1H27778P2-N297Q (antibody, human IgG1, V domains shown)
VH: EVQLVESGGGLEQPGGSLRLSCAASGFTFSSYAMSWVRQAPGKGLEWVSVISGSGGYTNYADSVKGRFTISRDNSKNTLYLQMNRLRAEDSAVYYCARHNWNYDYYGMDVWGQGTTVTVSS
VL: not shown
notes: human IgG1 Fc with N297Q; also called H1H27778P-N297Q
B9: H1H27731P-N297Q-LP1 (antibody, V domains shown)
VH: QLQLQESGPGLVKPSETLSLTCTVSGGSISRISYYWGWIRQPPGKGLEWIGSIYDSGSTYYNPSLKSRVTISIDTSKNQFSLKLSSVTAADTAVYYCVRYSSSSAFAFDYWGQGTLVTVSS
VL: B4 VL with N42K, F52S, N93S, W96F, Q100P, E105D
modifications: LXR agonist linker-payload LP1 clicked to azido-PEG3-amine on Q295 and Q297 (EU) of the heavy chain constant region
notes: antibody-drug conjugate; human IgG1 Fc with N297Q (EU); also called H1H27731P-LP1
B10: H1H27754P-N297Q-LP1 (antibody, human IgG1, V domains shown)
VH: B4 VH
VL: B4 VL
modifications: LXR agonist linker-payload LP1 clicked to azido-PEG3-amine on Q295 and Q297 (EU) of the heavy chain constant region
notes: antibody-drug conjugate; human IgG1 Fc with N297Q (EU); also called H1H27754P-LP1
B11: H1H27754P-N297Q (antibody, human IgG1, V domains shown)
VH: B4 VH
VL: B4 VL
notes: human IgG1 Fc with N297Q (EU)
B12: H1H27732P-N297Q-LP1 (antibody, human IgG1, V domains shown)
VH: B1 VH
VL: B1 VL
modifications: LXR agonist linker-payload LP1 clicked to azido-PEG3-amine on Q295 and Q297 (EU) of the heavy chain constant region
notes: antibody-drug conjugate; human IgG1 Fc with N297Q (EU); also called H1H27732P-LP1
B13: H1H27778P2-N297Q (antibody, human IgG1, V domains shown)
VH: B8 VH
VL: not shown
notes: Human IgG1 Fc with N297Q; also called H1H27778P-N297Q
B14: H1H27771P2-N297Q (antibody, V domains shown)
VH: B7 VH
VL: not shown
notes: Human IgG1 Fc with N297Q; also called H1H27771P-N297Q
B15: H1H27732P-N297Q (antibody, human IgG1, V domains shown)
VH: B1 VH
VL: B1 VL
notes: human IgG1 Fc with N297Q (EU)

Numbering of substitutions follows the chain as printed. In names and notes the source's numbering stands.

In the first assay the target is T1, full length human MSR1 with a C-terminal Myc tag, on HEK293.Myc.hMSR1 cells (human, UniProt P21757 1-451).
T1 sequence (looked up): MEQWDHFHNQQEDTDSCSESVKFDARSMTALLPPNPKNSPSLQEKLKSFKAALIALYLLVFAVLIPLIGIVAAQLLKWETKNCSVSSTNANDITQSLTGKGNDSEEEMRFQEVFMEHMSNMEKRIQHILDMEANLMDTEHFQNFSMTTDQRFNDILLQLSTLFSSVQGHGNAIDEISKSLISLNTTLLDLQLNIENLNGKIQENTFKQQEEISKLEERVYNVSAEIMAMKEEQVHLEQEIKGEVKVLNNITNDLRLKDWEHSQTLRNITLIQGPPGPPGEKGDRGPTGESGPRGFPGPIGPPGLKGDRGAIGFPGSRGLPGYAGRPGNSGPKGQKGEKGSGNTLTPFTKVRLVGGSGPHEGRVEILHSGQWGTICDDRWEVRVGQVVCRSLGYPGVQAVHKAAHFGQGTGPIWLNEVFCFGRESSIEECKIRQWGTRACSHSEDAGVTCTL
The experiment in a line: cell-based or functional assay.
For the molecule B1, the “% Inhibition of Dil-Acetylated LDL uptake” value was found to be 62% and the “% Inhibition of Dil-Oxidized LDL uptake” value is 86%.

Turning to B2, the “% Inhibition of Dil-Acetylated LDL uptake” value is 42%, the “% Inhibition of Dil-Oxidized LDL uptake” value amounted to 76% and the “IC50 of Dil-Acetylated LDL uptake inhibition” value is over 100 nM.

Consider B3, for which the “% Inhibition of Dil-Acetylated LDL uptake” value is 46%, the “% Inhibition of Dil-Oxidized LDL uptake” value worked out at 70%, the “IC50 of Dil-Acetylated LDL uptake inhibition” value is 2.6 nM and the “IC50 of Dil-Oxidized LDL uptake inhibition” value is 4.9 nM.

The next assay addresses T2, mouse MSR1 on RAW264.7 cells (mouse, UniProt P30204 1-458).
T2 construct: whole, on cells; also called MSR1 positive RAW264.7 cells
T2 sequence (looked up): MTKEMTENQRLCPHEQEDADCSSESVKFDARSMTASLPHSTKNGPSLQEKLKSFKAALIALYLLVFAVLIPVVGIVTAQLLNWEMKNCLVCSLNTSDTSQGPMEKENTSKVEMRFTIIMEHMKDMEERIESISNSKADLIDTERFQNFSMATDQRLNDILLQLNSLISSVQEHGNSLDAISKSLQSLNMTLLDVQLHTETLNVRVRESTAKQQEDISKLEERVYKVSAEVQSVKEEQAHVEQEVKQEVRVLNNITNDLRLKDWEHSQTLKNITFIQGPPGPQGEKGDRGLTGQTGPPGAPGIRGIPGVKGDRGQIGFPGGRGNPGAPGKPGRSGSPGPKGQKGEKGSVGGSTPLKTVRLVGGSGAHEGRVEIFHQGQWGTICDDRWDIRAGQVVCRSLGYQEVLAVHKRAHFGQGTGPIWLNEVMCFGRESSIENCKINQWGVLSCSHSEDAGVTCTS
Kind of assay: flow cytometry, RAW264.7 cells. A general note: In flow cytometry, cells or beads pass a laser one at a time.
Description: To block binding to Fc receptors, RAW264.7 cells were incubated for 30 minutes at 4° C. with 500 pg/mL mouse IgG (Jackson ImmunoResearch, Cat #015-000-003) diluted in staining buffer, while B16F10.9 cells remained in staining buffer. […] The signal to noise (S/N) was determined by calculating the ratio of the anti-MSR1 antibodies or the control antibodies MFI to the unstained sample MFI (Table 11).
Regarding B4, the MFI stood at 5410 MFI and the “S/N (MFI over unstained MFI)” value worked out at 1.

As for B5, the MFI came to 3790 MFI and the “S/N (MFI over unstained MFI)” value turned out to be 1.

Turning to B6, the “S/N (MFI over unstained MFI)” value was 1.

For B1, the MFI is 3420 MFI and the “S/N (MFI over unstained MFI)” value was 1.

With B2, the MFI was found to be 4570 MFI and the “S/N (MFI over unstained MFI)” value was determined as 1.

As for B7, the “S/N (MFI over unstained MFI)” value worked out at 1.

For B8, the “S/N (MFI over unstained MFI)” value came to 1.

As to B3, the MFI came to 3430 MFI and the “S/N (MFI over unstained MFI)” value amounted to 1.

In a further assay the target is T3, human MSR1 extracellular domain expressed with a N-terminal nonahistidine tag (His9-hMSR1); R&D Systems, Cat … (human, UniProt P21757 77-451).
T3 construct: extracellular domain; Bought reagent; also called His-hMSR1; 9xHis-hMSR1
T3 sequence: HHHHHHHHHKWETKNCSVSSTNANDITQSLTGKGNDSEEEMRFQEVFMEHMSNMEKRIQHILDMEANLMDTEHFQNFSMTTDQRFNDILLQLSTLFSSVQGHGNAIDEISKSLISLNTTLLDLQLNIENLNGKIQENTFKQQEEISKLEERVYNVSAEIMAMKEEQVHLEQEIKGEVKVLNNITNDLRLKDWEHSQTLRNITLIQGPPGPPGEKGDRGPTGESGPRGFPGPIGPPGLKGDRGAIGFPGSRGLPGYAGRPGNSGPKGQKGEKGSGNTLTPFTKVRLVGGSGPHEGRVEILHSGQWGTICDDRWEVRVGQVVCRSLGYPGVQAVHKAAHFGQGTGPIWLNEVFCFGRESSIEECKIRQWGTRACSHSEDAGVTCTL
The experiment in a line: SPR Biacore T200, 25 C, antibody captured by anti-human Fc, His9-hMSR1 injected. (SPR reads the build-up and loss of mass on a sensor chip optically.)
Description: (§1) All binding studies were performed in 10 mM HEPES, 300 mM NaCl, 3 mM EDTA, and 0.05% v/v Surfactant Tween-20, pH 7.4 (HBS-ET) running buffer at 25° C.
(§2) The association rate (kₐ) and dissociation rate (kd) were determined by fitting the real-time binding sensorgrams to a 1:1 binding model with mass transport limitation using Scrubber 2.0c curve-fitting software. Binding dissociation equilibrium constant (KD) and dissociative half-life (t½) were calculated from the kinetic rates as:
A word on the kon: it is the rate constant with which the complex forms. For B9, the on-rate (kon) came out at 128000 M⁻¹ s⁻¹.

Molecule B10 gave a kon of 177000 M⁻¹ s⁻¹.

Regarding B11, the kon is 200000 M⁻¹ s⁻¹.

As to B12, the association rate constant (kon) is 150000 M⁻¹ s⁻¹.

The next assay addresses T4, human MSR1 extracellular domain expressed with a N-terminal nonahistidine tag (human, UniProt P21757 77-451).
T4 construct: extracellular domain; also called His9-hMSR1; His-hMSR1
T4 sequence: T3 sequence
The experiment in a line: competition ELISA, plate-coated His9-hMSR1; 100 nM antibody, competitor ligand Ac-LDL.
Description: (§3) Buffer alone was also added to wells on each coat. […] This assay was conducted in four different assay runs.
(§4) Data analysis was performed using a sigmoidal dose-response model within Prism™ software (GraphPad).
Take B13: the “% Blocking” value was -40%.

A further assay deals with T4, human MSR1 extracellular domain …. Kind of assay: competition ELISA, plate-coated His9-hMSR1; 300 nM antibody, competitor ligand biot-AGE-BSA. (In general: In an ELISA, binding on a coated surface is turned into a signal by an enzyme label.)
Description: as §3, §4
As to B14, the “% Blocking” value was -1%.

As for B13, the “% Blocking” value is -8%.

A further assay has as its target T3, human MSR1 extracellular domain …. Kind of assay: SPR Biacore T200, 25 C, antibody captured by anti-human Fc, His9-hMSR1 injected; no dissociation seen, kd fixed at 1.00E-05.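 Further: running buffer HBS-ET pH 7.4, rates from sensorgrams fitted to a 1:1 model including mass transport limitation, KD and half-life derived from the kinetic constants.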
Description: as §1, §2
What is called Kd is the concentration at which binding is half-saturated. One may read the koff as the rate constant with which the complex falls apart. Usually t½ stands for the time in which the quantity being followed falls by half. Low values mean rapid decline, high ones slow decline. In the case of B9, the Kd is at most 0.078 nM, the koff is at most 1e-05 s⁻¹ and the t½ is at least 19.3 h.

Molecule B10 had an equilibrium dissociation constant (Kd) of at most 0.0564 nM, a koff of at most 1e-05 s⁻¹ and a t½ of at least 19.3 h.

Molecule B11 registered a Kd of at most 0.0499 nM, a koff of at most 1e-05 s⁻¹ and a t½ of at least 19.3 h.

As to B15, the Kd was at most 0.045 nM and the t½ is at least 19.3 h.

Take B12: the Kd is at most 0.066 nM, the koff is at most 1e-05 s⁻¹ and the t½ was at least 19.3 h.

Values taken from US20190367631A1 (Regeneron, published 2019).
